Assay results from patent US8133680.

What was measured:
[1] = target: biotinylated bovine serum albumin (bovine) (UniProt P02769); test: ellipsometry after affinity microcontact printing; third use of the biotinylated BSA stamp; control
[2] = target: biotinylated bovine serum albumin (bovine) (UniProt P02769); test: ellipsometry after affinity microcontact printing; second use of the biotinylated BSA stamp; control
[3] = target: biotinylated bovine serum albumin (bovine) (UniProt P02769); test: ellipsometry after affinity microcontact printing from biotinylated BSA stamp (1 mg/ml, 5 h); control

Sequence of UniProt P02769 (P02769 25-607 limits assumed): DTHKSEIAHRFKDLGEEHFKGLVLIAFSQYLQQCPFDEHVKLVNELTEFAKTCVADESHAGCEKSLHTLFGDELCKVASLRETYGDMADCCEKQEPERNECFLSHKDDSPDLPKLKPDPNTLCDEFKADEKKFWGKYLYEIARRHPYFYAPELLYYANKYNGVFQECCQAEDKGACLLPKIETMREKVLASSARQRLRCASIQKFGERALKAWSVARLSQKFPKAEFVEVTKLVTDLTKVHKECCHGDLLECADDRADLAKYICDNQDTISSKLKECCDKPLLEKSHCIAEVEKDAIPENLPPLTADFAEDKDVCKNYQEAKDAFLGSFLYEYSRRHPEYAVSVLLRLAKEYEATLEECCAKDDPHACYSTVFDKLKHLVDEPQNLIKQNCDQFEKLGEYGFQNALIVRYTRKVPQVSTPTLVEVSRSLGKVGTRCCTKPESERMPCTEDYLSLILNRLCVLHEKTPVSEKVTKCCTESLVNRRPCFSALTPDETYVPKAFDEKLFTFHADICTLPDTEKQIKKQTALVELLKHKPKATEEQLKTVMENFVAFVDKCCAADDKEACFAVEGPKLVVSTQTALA

change in ellipsometric thickness [1]: 1.2 nm
change in ellipsometric thickness [2]: 1.5 nm
change in ellipsometric thickness [3]: 2.3 nm
Substance: anti-goat IgG (antibody)
